Measured values from PMC2839365 (Biochemical and biophysical research communications, 2010).
Where two headings read alike, the source gives them in different places.

Assays:
Experiment in all cases: ITC
βI14-15 T1788A [1] = target: βI14-15 T1788A
βI14-15 E1784A = target: βI14-15 E1784A
βI14-15 T1788A [2] = target: βI14-15 T1788A; remark: listed apart in the source
βI14-15 D1701A = target: βI14-15 D1701A
βI14-15 E1703A = target: βI14-15 E1703A
βI14-15 A1867P = target: βI14-15 A1867P
βI14-15 Y1866A = target: βI14-15 Y1866A
βI14-15 E1710A = target: βI14-15 E1710A
βI14-15 D1700A = target: βI14-15 D1700A
βI14-15 E1708A = target: βI14-15 E1708A
[3] = target: wild type βI-spectrin 14-15 di-repeat
βI14-15 D1781A = target: βI14-15 D1781A

B1: ZU5 domain of ankyrin (domain or fragment)
chain: FLVSFMVDARGGSMRGSRHNGLRVVIPPRTCAAPTRITCRLVKPQKLSTPPPLAEEEGLASRIIALGPTGAQFLSPVIVEIPHFASHGRGDRELVVLRSENGSVWKEHRSRYGESYLDQILNGMDEELGSLEELEKKRVCRIITTDFPLYFVIMSR
βI14-15 T1788A [1]
  Kd: 5800 nM
βI14-15 E1784A
  Kd: 43400 nM
βI14-15 T1788A [2]
  Kd: 5730 nM
βI14-15 D1701A
  Kd: 360 nM
βI14-15 E1703A
  Kd: 320 nM
βI14-15 A1867P
  Kd: 14900 nM
βI14-15 Y1866A
  Kd: 22000 nM
βI14-15 E1710A
  Kd: 1700 nM
βI14-15 D1700A
  Kd: 440 nM
βI14-15 E1708A
  Kd: 430 nM
[3]
  Kd: 190 nM
βI14-15 D1781A
  Kd: 2100 nM
